Results from US20260266848A1, “COMPOSITIONS AND METHODS FOR DIAGNOSING AND TREATING DYSTONIA” (Duke University, priority 2023, published 2026).

Experiments:
[1] = test system: DYT-TOR1A MEF EVs; assay: Quantitative LC-MS/MS proteomics of EVs from drug-treated DYT-TOR1A MEF cultures (ritonavir, salubrinal); format: cell-based, mouse; set-up: key to RTV Corrective Direction / RTV Corrective Direction, Grwd1 / RTV Corrective Direction, Srrm2 / RTV Corrective Direction, Rbm17 / RTV Corrective Direction, Dcaf8 / RTV Corrective Direction, Edil3 / RTV Corrective Direction, Timp3 / RTV Corrective Direction, Heatr3 / RTV Corrective Direction, Brd4 / RTV Corrective Direction, P3h4 / RTV Corrective Direction, Pacsin3 / RTV Corrective Direction, Naa50 / RTV Corrective Direction, Lpar6 / RTV Corrective Direction, Ndrg1 / RTV Corrective Direction, Kntc1 / RTV Corrective Direction, Cdk11b / RTV Corrective Direction, Sumo1 / RTV Corrective Direction, Lsm4 / RTV Corrective Direction, Hmga2 / RTV Corrective Direction, Cstf1 / RTV Corrective Direction, Tes / RTV Corrective Direction, Sbno1 / RTV Corrective Direction, Unc119b / RTV Corrective Direction, Cfdp1 / RTV Corrective Direction, Sec61b: YES = protein abundance effect opposite to DYT/WT; settings: EV protein abundance; for RTV Corrective Direction: DYT + RTV (ritonavir) vs DYT, direction compared with DYT/WT; for DYT + RTV/DYT Cohen's d: ritonavir (RTV)-treated DYT vs DYT
[2] = test system: WT MEF EVs; assay: Quantitative LC-MS/MS proteomics of EVs from ISRIB-treated WT MEF cultures; format: cell-based, mouse; set-up: key to ISRIB and DYT Parallel Direction / ISRIB and DYT Parallel Direction, Ctdsp1 / ISRIB and DYT Parallel Direction, Pcdh19 / ISRIB and DYT Parallel Direction, Tspan7 / ISRIB and DYT Parallel Direction, Myo1e / ISRIB and DYT Parallel Direction, Plpp3 / ISRIB and DYT Parallel Direction, Sh3bp4 / ISRIB and DYT Parallel Direction, Dnajc7 / ISRIB and DYT Parallel Direction, Drg1 / ISRIB and DYT Parallel Direction, Maea: YES = protein abundance effect similar to DYT/WT; settings: EV protein abundance; for WT + ISRIB/WT Cohen's d: ISRIB-treated WT vs WT; for ISRIB and DYT Parallel Direction: WT + ISRIB vs WT, direction compared with DYT/WT

Molecule | RTV Corrective Direction [1] | DYT + RTV/DYT Cohen's d [1] | WT + ISRIB/WT Cohen's d [2] | ISRIB and DYT Parallel Direction [2]
Slc9a1 (protein, UniProt Q61165 1-820, looked up) Sodium/hydrogen exchanger 1: MMLRWSGVWGFHPPRIFPSLLVVVALVGLLPVLRSHGLQHSPTASTIRGSEPPRERSIGDVTTAPSEPLHRPDDHNLTNLIIEHGGKPSRKAFPVLDIDYPHVRTPFEISLWILLACLMKIGFHVIPTISSIVPESCLLIVVGLLVGGLIKGVGETPPFLQSDVFFLFLLPPIILDAGYFLPLRQFTENLGTILIFAVVGTLWNAFFLGGLLYAVCLVGGEQINNIGLLDTLLFGSIISAVDPVAVLAVFEEIHINELLHILVFGESLLNDAVTVVLYHLFEEFASYDSVGISDIFLGFLSFFVVALGGVFVGVVYGVIAAFTSRFTSHIRVIEPLFVFLYSYMAYLSAELFHLSGIMALIASGVVMRPYVEANISHKSHTTIKYFLKMWSSVSETLIFIFLGVSTVAGSHQWNWTFVISTLLFCLIARVLGVLVLTWFINKFRIVKLTPKDQFIIAYGGLRGAIAFSLGYLLDKKHFPMCDLFLTAIITVIFFTVFVQGMTIRPLVDLLAVKKKQETKRSINEEIHTQFLDHLLTGIEDICGHYGHHHWKDKLNRFNKKYVKKCLIAGERSKEPQLIAFYHKMEMKQAIELVESGGMGKIPSAVSTVSMQNIHPKAVTSDRILPALSKDKEEEIRKILRSNLQKTRQRLRSYNRHTLVADPYEEAWNQMLLRRQKARQLEQKITNYLTVPAHKLDSPTLSRARIGSDPLAYEPKADLPVITIDPASPQSPESVDLVNEELKGKVLGLNRGPRVTPEEEEEDEDGIIMIRSKEPSSPGTDDVFTPGSSDSPSSQRIQRCLSDPGPHPEPGEGEPFIPKGQ | YES | −2.60 | 0.44 | YES
Nif3l1 (protein, UniProt Q9EQ80 1-376, looked up) NIF3-like protein 1: MLSSAHLVPTSVQRAQSWICRSSRSFMDLKALLSSLNDFASLSFAESWDNVGLLVEPSPPHTVNTLFLTNDLTEEVMDEALQKKADFILSYHPPIFRPMKHITWKTWKECLVIRALENRVAVYSPHTAYDAAPQGVNSWLAKGLGTCTTRPIHPSRAPDYPTEGAHRLEFSVNRSQDLDKVMSTLRGVGGVSVTSFPARCDGEEQTRISLNCTQKTLMQVLAFLSQDRQLYQKTEILSLEKPLLLHTGMGRLCTLDESVSLAIMIERIKTHLKLSHLRLALGVGRTLESQVKVVALCAGSGGSVLQGVEADLYLTGEMSHHDVLDAASKGINVILCEHSNTERGFLSELQEMLGVHFENKINIILSETDRDPLRVV | YES | 1.58 | −3.93 | YES
Nectin2 (protein, UniProt Q92692 32-538, looked up) Nectin-2: QDVRVQVLPEVRGQLGGTVELPCHLLPPVPGLYISLVTWQRPDAPANHQNVAAFHPKMGPSFPSPKPGSERLSFVSAKQSTGQDTEAELQDATLALHGLTVEDEGNYTCEFATFPKGSVRGMTWLRVIAKPKNQAEAQKVTFSQDPTTVALCISKEGRPPARISWLSSLDWEAKETQVSGTLAGTVTVTSRFTLVPSGRADGVTVTCKVEHESFEEPALIPVTLSVRYPPEVSISGYDDNWYLGRTDATLSCDVRSNPEPTGYDWSTTSGTFPTSAVAQGSQLVIHAVDSLFNTTFVCTVTNAVGMGRAEQVIFVRETPNTAGAGATGGIIGGIIAAIIATAVAATGILICRQQRKEQTLQGAEEDEDLEGPPSYKPPTPKAKLEAQEMPSQLFTLGASEHSPLKTPYFDAGASCTEQEMPRYHELPTLEERSGPLHPGATSLGSPIPVPPGPPAVEDVSLDLEDEEGEEEEEYLDKINPIYDALSYSSPSDSYQGKGFVMSRAMYV | YES | 3.32 | −1.19 | YES
Txnl1 (protein, UniProt O43396 2-289, looked up) Thioredoxin-like protein 1: VGVKPVGSDPDFQPELSGAGSRLAVVKFTMRGCGPCLRIAPAFSSMSNKYPQAVFLEVDVHQCQGTAATNNISATPTFLFFRNKVRIDQYQGADAVGLEEKIKQHLENDPGSNEDTDIPKGYMDLMPFINKAGCECLNESDEHGFDNCLRKDTTFLESDCDEQLLITVAFNQPVKLYSMKFQGPDNGQGPKYVKIFINLPRSMDFEEAERSEPTQALELTEDDIKEDGIVPLRYVKFQNVNSVTIFVQSNQGEEETTRISYFTFIGTPVQATNMNDFKRVVGKKGESH | YES | 1.99 | −0.66 | YES
Aldh2 (protein, UniProt P47738 20-519, looked up) Aldehyde dehydrogenase, …: SAAATSAVPAPNHQPEVFCNQIFINNEWHDAVSRKTFPTVNPSTGEVICQVAEGNKEDVDKAVKAARAAFQLGSPWRRMDASDRGRLLYRLADLIERDRTYLAALETLDNGKPYVISYLVDLDMVLKCLRYYAGWADKYHGKTIPIDGDFFSYTRHEPVGVCGQIIPWNFPLLMQAWKLGPALATGNVVVMKVAEQTPLTALYVANLIKEAGFPPGVVNIVPGFGPTAGAAIASHEGVDKVAFTGSTEVGHLIQVAAGSSNLKRVTLELGGKSPNIIMSDADMDWAVEQAHFALFFNQGQCCCAGSRTFVQENVYDEFVERSVARAKSRVVGNPFDSRTEQGPQVDETQFKKILGYIKSGQQEGAKLLCGGGAAADRGYFIQPTVFGDVKDGMTIAKEEIFGPVMQILKFKTIEEVVGRANDSKYGLAAAVFTKDLDKANYLSQALQAGTVWINCYDVFGAQSPFGGYKMSGSGRELGEYGLQAYTEVKTVTVKVPQKNS | YES | 18.21 | −7.25 | YES
Ankfy1 (protein, UniProt Q810B6 2-1169, looked up) Rabankyrin-5: AEEEVAKLEKHLMLLRQEYVKLQKKLAETEKRCTLLAAQANKENSNESFISRLLAIVAGLYEQEQYSDLKIKVGDRHISAHKFVLAARSDSWSLANLSSTEEIDLSDANPEVTMTMLRWIYTDELEFREDDVFLTELMKLANRFQLQLLRERCEKGVMSLVNVRNCIRFYQTAEELNASTLMNYCAEIIASHWDDLRKEDFSSLSAQLLYKMIKSKTEYPLHKAIKVEREDVVFLYLIEMDSQLPGKLNETDHNGDLALDLALSRRLESIATTLVSHKADVDMVDKNGWSLLHKGIQRGDLFASTFLIKNGALVNAATAGAQETPLHLVALYSPKKYSADVMSEMAQIAEALLQAGANPNMQDSKGRTPLHLSIMARNDCVFSQLLQCKQLDLELKDHEGSTALWLAVQYITVSSDQSVNPFEDLPVVNGTSFDENSFAARLIQRGSNTDAPDVMTGNCLLQRAAGAGNEAAALFLATSGAHANHRNKWGETPLHTACRHGLANLTAELLQQGANPNLQTEEALPVPKESPVLMSSADSIYLQTPLHMAIAYNHPDVVSVILEQKANALHATNNLQIIPDFSLKDSRDQTVLGLALWTGMHTIAAQLLGSGASINDTMSDGQTLLHMAIQRQDSKSALFLLEHQADINVRTQDGETALQLAIKHQLPLVVDAICTRGADMSVPDEKGNPPLWLALASNLEDIASTLVRHGCDATCWGPGPSGCLQTLLHRAVDENNESTACFLIRSGCDVNSPRQPGTNGEGEEEARDGQTPLHLAASWGLEETVQCLLEFGANVNAQDAEGRTPVHVAISNQHSVIIQLLISHPNIELSVRDRQGLTPFACAMTYKNNKAAEAILKRESGAAEQVDNKGRNFLHVAVQNSDIESVLFLISVQANVNSRVQDASKLTPLHLAVQAGSEIIVRNLLLAGAKVNELTKHRQTALHLAAQQDLPTICSVLLENGVDFAAVDENGNNALHLAVMHGRLNNIRALLTECTVDAEAFNLRGQSPLHILGQYGKENAAAIFDLFLECMPEYPLDKPDAEGNTVLLLAYMKGNANLCRAIVRSGVRLGVNNNQGVNIFNYQVATKQLLFRLLDMLSKEPPWCDGSNCYECTAKFGVTTRKHHCRHCGRLLCHKCSTKEIPIIKFDLNKPVRVCNICFDVLTLGGVS | YES | 2.86 | −1.45 | YES
Steap3 (protein, UniProt Q8CI59 1-488, looked up) Metalloreductase STEAP3: MSGEMDKPLISRRLVDSDGSLAEVPKEAPKVGILGSGDFARSLATRLVGSGFSVVVGSRNPKRTAGLFPSLAQVTFQEEAVSSPEVIFVAVFREHYSSLCSLADQLAGKILVDVSNPTEKEHLQHRQSNAEYLASLFPACTVVKAFNVISAWALQAGPRDGNRQVLICSDQPEAKRTISEMARAMGFTPLDMGSLASAREVEAIPLRLLPSWKVPTLLALGLFVCFYTYNFIRDVLQPYIRKDENKFYKMPLSVVNTTLPCVAYVLLSLVYLPGVLAAALQLRRGTKYQRFPDWLDHWLQHRKQIGLLSFFFAMLHALYSFCLPLRRSHRYDLVNLAVKQVLANKSRLWVEEEVWRMEIYLSLGVLALGMLSLLAVTSLPSIANSLNWKEFSFVQSTLGFVALILSTMHTLTYGWTRAFEENHYKFYLPPTFTLTLLLPCVIILAKGLFLLPCLSRRLTKIRRGWEKDGAVKFMLPGDHTQGEKTSHV | YES | 1.81 | −3.91 | YES
